Tested on: K4 kissing-loop RNA reporter
Assay: apparent KD of K4 kissing-loop reporter; higher = weaker reporter binding
Settings: Eterna round: R107
Procedure: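 RNA-MaP round R107: designed RNA switches with theophylline, tryptophan, arginine or FMN aptamers are transcribed on-chip within common flanks. They are titrated with a labelled K4 kissing-loop RNA reporter in RNA-MaP buffer (100 mM Tris pH 7.5, 80 mM KCl, 4 mM MgCl2), without ligand or with the indicated ligand. Median apparent KD per design.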

[1] = input ligand: theophylline 20 uM
[2] = input ligand: tryptophan 2.4 mM
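Further: bound reporter read as fluorescence of individual clusters on recovered sequencing chips by microscopy, with normalized cluster intensities fitted with a binding model.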

UUAGUCUAGAGAAGGAGCGAGUGAUGUUCGCAGCCCAAAUAAUAAUAAUAAUAAGGGCAUCCUCAGGUAGGUCGCUCUAGACAUU [AK5 Exc Arginine B]
apparent KD of K4 kissing-loop reporter (input ligand: FMN 200 uM): 335 nM
apparent KD of K4 kissing-loop reporter (input ligand: arginine 13.2 mM): 290 nM
apparent KD of K4 kissing-loop reporter (input ligand: none): 334 nM
apparent KD of K4 kissing-loop reporter [1]: 354 nM
apparent KD of K4 kissing-loop reporter [2]: 292 nM

AGAUGACACGGAGGAUAUCCUAAUAUGGGUGAUGUUAGCGAUGUUGAAGGUGUAGUGAUGUUAUGCGGAGAAGGCCGUGUUGUUU [BDazzled - #22 - Exc. FMN B]
apparent KD of K4 kissing-loop reporter (input ligand: FMN 200 uM): 103 nM
apparent KD of K4 kissing-loop reporter (input ligand: arginine 13.2 mM): 85.6 nM
apparent KD of K4 kissing-loop reporter (input ligand: none): 155 nM
apparent KD of K4 kissing-loop reporter [1]: 102 nM
apparent KD of K4 kissing-loop reporter [2]: 96.1 nM

UUUUUGGAGAAUUAUAGUGAUGUUAUGAAGGAGGAUAUCUGGAGAUGGAGAAGGCCUAGUGGCUCAGGGAUGGAGGGUGGGUGGG [ExFMNA.Y]
apparent KD of K4 kissing-loop reporter (input ligand: FMN 200 uM): 704 nM
apparent KD of K4 kissing-loop reporter (input ligand: arginine 13.2 mM): 411 nM
apparent KD of K4 kissing-loop reporter (input ligand: none): 487 nM
apparent KD of K4 kissing-loop reporter [1]: 655 nM
apparent KD of K4 kissing-loop reporter [2]: 301 nM

CCUUGAGAGUGAUGUUCUCGAGUGAAAGUCAAGGAUAUCCCGCGGUGGAGAAGGUGAUGGCGAACUUGACUGCUGUCAGUCCUAA [theeternabot_exclusion_KL_FMN_A_10]
apparent KD of K4 kissing-loop reporter (input ligand: FMN 200 uM): 104 nM
apparent KD of K4 kissing-loop reporter (input ligand: arginine 13.2 mM): 105 nM
apparent KD of K4 kissing-loop reporter (input ligand: none): 121 nM
apparent KD of K4 kissing-loop reporter [1]: 109 nM
apparent KD of K4 kissing-loop reporter [2]: 110 nM

AAUAAAAGAUGUUUAGGAAAGCAAAUGGAAGGAGCGUGCGAAAGCACAGGUAGGUCGCCAGUGAUGUUGGCACCUGAGCAUCAAA [#SwitchBubble 18 #K4Late]
apparent KD of K4 kissing-loop reporter (input ligand: FMN 200 uM): 251 nM
apparent KD of K4 kissing-loop reporter (input ligand: arginine 13.2 mM): 285 nM
apparent KD of K4 kissing-loop reporter (input ligand: none): 303 nM
apparent KD of K4 kissing-loop reporter [1]: 336 nM
apparent KD of K4 kissing-loop reporter [2]: 264 nM

AAUUAAUGUAUAGAUUAUAUACAUUAAUCAGAGGAUAUGCAUUGUUGCAGAAGGCUGAAUGCAGUGAUGUUGCAAUGGAAAUUUA [JR_SSFMNA_Sub004]
apparent KD of K4 kissing-loop reporter (input ligand: FMN 200 uM): 53.8 nM
apparent KD of K4 kissing-loop reporter (input ligand: arginine 13.2 mM): 201 nM
apparent KD of K4 kissing-loop reporter (input ligand: none): 181 nM
apparent KD of K4 kissing-loop reporter [1]: 376 nM
apparent KD of K4 kissing-loop reporter [2]: 120 nM

AGAUUCGACACGGCCGCCACUUCCAGUGGCUGGUGUCAUGGUGCACGUGAGUGAUGUUUAUGUGGAAGGACCGGGUGUUGAGUCU [KL-XTryp-B2 #analogue]
apparent KD of K4 kissing-loop reporter (input ligand: FMN 200 uM): 652 nM
apparent KD of K4 kissing-loop reporter (input ligand: arginine 13.2 mM): 472 nM
apparent KD of K4 kissing-loop reporter (input ligand: none): 670 nM
apparent KD of K4 kissing-loop reporter [1]: 504 nM
apparent KD of K4 kissing-loop reporter [2]: 1250 nM

UAAGAGGACCACUGCAAGAGUCCUCGAAUACGAGGACCGGUACGGCCGCCACUCGAUAACUUGUAGUGAUGUUGCAAGUAAGAAU [BrourdMod 1 - Jieux - Same State Tryptophan A]
apparent KD of K4 kissing-loop reporter (input ligand: FMN 200 uM): 71.2 nM
apparent KD of K4 kissing-loop reporter (input ligand: arginine 13.2 mM): 79.2 nM
apparent KD of K4 kissing-loop reporter (input ligand: none): 79.4 nM
apparent KD of K4 kissing-loop reporter [1]: 79.2 nM
apparent KD of K4 kissing-loop reporter [2]: 42.9 nM

AGUGAUAUAUGAGGAUAUGGGUUUGUUAAUGAGUUAUUUUUAGUGUUGUUUGGUUAGUGAUGUUAUUUAGAAGGCGUGAGUGAUG [rrwswwmjmullin]
apparent KD of K4 kissing-loop reporter (input ligand: FMN 200 uM): 93.7 nM
apparent KD of K4 kissing-loop reporter (input ligand: arginine 13.2 mM): 89.4 nM
apparent KD of K4 kissing-loop reporter (input ligand: none): 81.9 nM
apparent KD of K4 kissing-loop reporter [1]: 111 nM
apparent KD of K4 kissing-loop reporter [2]: 76.5 nM

AUGCGCGUGCGAUGAAAAUCGCACGCGCAUCGAGGACCGGUACGGCCGCCACUCGCUCGCGCCGAGUGAUGUUCGGCCGGCGAAC [#2 Same State - Tryptophan A Attempt #4 (HarryS)]
apparent KD of K4 kissing-loop reporter (input ligand: FMN 200 uM): 278 nM
apparent KD of K4 kissing-loop reporter (input ligand: arginine 13.2 mM): 268 nM
apparent KD of K4 kissing-loop reporter (input ligand: none): 267 nM
apparent KD of K4 kissing-loop reporter [1]: 217 nM
apparent KD of K4 kissing-loop reporter [2]: 506 nM

ACUGAAAGAUCUGAUACCAGACUUUUUGUAUUUAUUAAAACUAGUGAUGUUAGUUUAUCUGUCCCUUGGCAGCAGUUUCUACAGA [JR_Nu_ExcTheophyB_Sub023]
apparent KD of K4 kissing-loop reporter (input ligand: FMN 200 uM): 128 nM
apparent KD of K4 kissing-loop reporter (input ligand: arginine 13.2 mM): 132 nM
apparent KD of K4 kissing-loop reporter (input ligand: none): 144 nM
apparent KD of K4 kissing-loop reporter [1]: 134 nM
apparent KD of K4 kissing-loop reporter [2]: 117 nM

GGGUUGAACUGAAGGAGCGAGAAAUAGAAAGUAAGAAGAUAAGCUAGUGAUGUUAGAAAUUCUCAGGUAGGUCGCAGUAAGAAUU [V3]
apparent KD of K4 kissing-loop reporter (input ligand: FMN 200 uM): 338 nM
apparent KD of K4 kissing-loop reporter (input ligand: arginine 13.2 mM): 325 nM
apparent KD of K4 kissing-loop reporter (input ligand: none): 354 nM
apparent KD of K4 kissing-loop reporter [1]: 280 nM
apparent KD of K4 kissing-loop reporter [2]: 258 nM

UGGUUUGGAAGUGAUGUUUCUAUAAGUGAUACCAGACAAAAGAAAGUCCCUUGGCAGCACAAUGAUGCCAAGGAAACGGCAUGAU [#15 K4 Theophylline A Same State]
apparent KD of K4 kissing-loop reporter (input ligand: FMN 200 uM): 179 nM
apparent KD of K4 kissing-loop reporter (input ligand: arginine 13.2 mM): 164 nM
apparent KD of K4 kissing-loop reporter (input ligand: none): 174 nM
apparent KD of K4 kissing-loop reporter [1]: 157 nM
apparent KD of K4 kissing-loop reporter [2]: 150 nM

UCGAACGAUGGAAGGAGCGCUCGUCAGUCCUGCGAGUGAUGUUCGUGGGUAAAUAGUCGCGAGCAGGUAGGUCGCCAUCUUGGGC [Reriat]
apparent KD of K4 kissing-loop reporter (input ligand: FMN 200 uM): 153 nM
apparent KD of K4 kissing-loop reporter (input ligand: arginine 13.2 mM): 132 nM
apparent KD of K4 kissing-loop reporter (input ligand: none): 151 nM
apparent KD of K4 kissing-loop reporter [1]: 136 nM
apparent KD of K4 kissing-loop reporter [2]: 134 nM

CAUAGACAAGUGAUGUUUGUCAUAACCGAAGGAGCGUCGUUGAAGACAGGUAGGUCGCGGAUUAAUUUAGAUUAUAUUCUUUUUA [JR_SSArginiA_Sub020]
apparent KD of K4 kissing-loop reporter (input ligand: FMN 200 uM): 595 nM
apparent KD of K4 kissing-loop reporter (input ligand: arginine 13.2 mM): 462 nM
apparent KD of K4 kissing-loop reporter (input ligand: none): 570 nM
apparent KD of K4 kissing-loop reporter [1]: 567 nM
apparent KD of K4 kissing-loop reporter [2]: 542 nM

UGAUACCAGGCGGCCGCCACUCCUACAGGUCAAAGACCUGUAGAACUGGUUUUUUAGUGAUGUUGGAGGACCGGGCCUGGUAUCU [FiskerMod 30 - Jieux - Exclusion - Tryptophan B]
apparent KD of K4 kissing-loop reporter (input ligand: FMN 200 uM): 698 nM
apparent KD of K4 kissing-loop reporter (input ligand: arginine 13.2 mM): 217 nM
apparent KD of K4 kissing-loop reporter (input ligand: none): 394 nM
apparent KD of K4 kissing-loop reporter [1]: 296 nM
apparent KD of K4 kissing-loop reporter [2]: 321 nM

GGGAGUAGUGCGGCCGCCACUGAGAAAGAAGAAGAAUAUAGUGAUGUUAUGUGGGAAAGGAAGAACAGGACCGGGCAUUAGAUUU [#21 K4 Tryptophan B Same State]
apparent KD of K4 kissing-loop reporter (input ligand: FMN 200 uM): 821 nM
apparent KD of K4 kissing-loop reporter (input ligand: arginine 13.2 mM): 450 nM
apparent KD of K4 kissing-loop reporter (input ligand: none): 488 nM
apparent KD of K4 kissing-loop reporter [1]: 441 nM
apparent KD of K4 kissing-loop reporter [2]: 499 nM

ACAGCGAGCAUUAACGCGCUCGCAGGUUGCAAGGAUAUAUUUCGUCAUAGAAGGUGCUAGACCAUAAGUGAUGUUUGUGGAUAUA [theeternabot_sameState_KL_FMN_A_16]
apparent KD of K4 kissing-loop reporter (input ligand: FMN 200 uM): 576 nM
apparent KD of K4 kissing-loop reporter (input ligand: arginine 13.2 mM): 396 nM
apparent KD of K4 kissing-loop reporter (input ligand: none): 503 nM
apparent KD of K4 kissing-loop reporter [1]: 448 nM
apparent KD of K4 kissing-loop reporter [2]: 525 nM

CCAGGAUGAUGAGGAUGAUGAAUUACUGAAGGAGCGCAUAUGGUUGCAGGUAGGUCGCGGUGAAUAAGUAUAGUGAUGUUAUGCC [SSArgA.X]
apparent KD of K4 kissing-loop reporter (input ligand: FMN 200 uM): 530 nM
apparent KD of K4 kissing-loop reporter (input ligand: arginine 13.2 mM): 407 nM
apparent KD of K4 kissing-loop reporter (input ligand: none): 594 nM
apparent KD of K4 kissing-loop reporter [1]: 448 nM
apparent KD of K4 kissing-loop reporter [2]: 427 nM

ACAGGAUCGAAAGAUCCUGAGCAGUCAAACCGAGGACCGGUACGGCCGCCACUCGGAGUGAUGUUCCGAAGACUGCAAAAUAAAA [#SwitchBubble 1]
apparent KD of K4 kissing-loop reporter (input ligand: FMN 200 uM): 539 nM
apparent KD of K4 kissing-loop reporter (input ligand: arginine 13.2 mM): 707 nM
apparent KD of K4 kissing-loop reporter (input ligand: none): 1120 nM
apparent KD of K4 kissing-loop reporter [1]: 406 nM
apparent KD of K4 kissing-loop reporter [2]: 334 nM

GACGGGUUCCUGCUCAAUCCGUCGCAUGAUCGAGGACCGGUACGGCCGCCACUCGAGGCCAUGCCGUACGAGUGAUGUUCGUGCG [Xeon]
apparent KD of K4 kissing-loop reporter (input ligand: FMN 200 uM): 438 nM
apparent KD of K4 kissing-loop reporter (input ligand: arginine 13.2 mM): 367 nM
apparent KD of K4 kissing-loop reporter (input ligand: none): 403 nM
apparent KD of K4 kissing-loop reporter [1]: 380 nM
apparent KD of K4 kissing-loop reporter [2]: 200 nM
